# Patent publication US20220175920A1 (INSERM INSTITUT NATIONAL DE LA SANTE ET DE LA RECHERCHE …, published 2022)
# B1: anti-CD40 12E12 human IgG4 antibody (antibody, V domains shown)
# VH: EVQLVESGGGLVQPGGSLKLSCATSGFTFSDYYMYWVRQAPGKGLEWVAYINSGGGSTYYPDTVKGRFTISRDNAKNTLYLQMNSLRAEDTAVYYCARRGLPFHAMDYWGQGTLVTVSS
# VL: DIQMTQSPSSLSASVGDRVTITCSASQGISNYLNWYQQKPGKAVKLLIYYTSILHSGVPSRFSGSGSGTDYTLTISSLQPEDFATYYCQQFNKLPPTFGGGTK
# notes: also called mAb6 [12E12]; anti-CD40 12E12 IgG4
# B2: anti-CD40 11B6 human IgG4 antibody (antibody, V domains shown)
# VH: EVQLVQSGAEVKKPGASVKISCKASGYSFTGYYMHWVKQAHGQGLEWIGRINPYNGATSYNQNFKDRATLTVDKSTSTAYMELSSLRSEDTAVYYCAREDYVYWGQGTTVTVSS
# VL: DVVMTQSPLSLPVTLGQPASISCRSSQSLVHSNGNTYLHWYQQRPGQSPRLLIYKVSNRFSGVPDRFSGSGSGTDFTLKISRVEAEDVGVYFCSQSTHVPWTFGGGTKLEIKR
# notes: also called mAb1 [11B6 VH/VkV2]; PAB3405
# B3: CP-870,893 formatted as human IgG4 (antibody, V domains shown)
# VH: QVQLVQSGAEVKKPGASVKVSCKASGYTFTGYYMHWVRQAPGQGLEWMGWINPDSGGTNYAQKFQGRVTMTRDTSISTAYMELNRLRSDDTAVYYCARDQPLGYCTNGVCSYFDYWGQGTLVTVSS
# VL: DIQMTQSPSSVSASVGDRVTITCRASQGIYSWLAWYQQKPGKAPNLLIYTASTLQSGVPSRFSGSGSGTDFTLTISSLQPEDFATYYCQQANIFPLTFGGGTK
# notes: also called mAb5 [CP870893]; anti-CD40 CP
# B4: anti-CD40 24A3 human IgG4 antibody (antibody, V domains shown)
# VH: DVQLQESGPDLVKPSQSLSLTCTVTGYSITSDYSWHWIRQFPGNKLEWMGYIYYSGSTNYNPSLKSRISITRDTSKNQFFLQLNSVTTEDSATYFCARFYYGYSFFDYWGQGTTLTVSS
# VL: QIVLTQSPAFMSASPGEKVTMTCSASSSVSYMHWYQQKSGTSPKRWIYDTSKLASGVPARFSGSGSGTSYSLTISSMEAEDAATYYCQQWSSNPLTFGAGTK
# notes: also called mAb4 [24A3]
# B5: anti-CD40 12B4 human IgG4 antibody (antibody, V domains shown)
# VH: EVQLQQSGPELVKPGASVKMSCKASGYTFTDYVLHWVKQKPGQGLEWIGYINPYNDGTKYNEKFKGKATLTSDKSSSTAYMELSSLTSEDSAVYYCARGYPAYSGYAMDYWGQGTSVTVSS
# VL: DIQMTQTTSSLSASLGDRVTISCRASQDISNYLNWYQQKPDGTVKLLIYYTSRLHSGVPSRFSGSGSGTDYSLTISNLEQEDIATYFCHHGNTLPWTFGGGTK
# notes: also called mAb3 [12B4]
# Biological target: T1, cohesin-human CD40 ectodomain protein (P3398) (human)
# T1 construct: SPR analyte; also called soluble human CD40 ectodomain; liquid phase soluble human CD40 ectodomain; not shown: cohesin domain of P3398 and its junction to CD40
# Assay: SPR
# T1 sequence (chain, as listed by the source limits assumed): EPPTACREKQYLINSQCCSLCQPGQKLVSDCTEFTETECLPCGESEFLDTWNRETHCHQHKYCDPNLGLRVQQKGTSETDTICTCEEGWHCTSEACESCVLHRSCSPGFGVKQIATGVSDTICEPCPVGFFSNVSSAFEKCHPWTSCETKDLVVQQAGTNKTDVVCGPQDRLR
row,Binder,Kd [nM]
1,B1,28

# Biological target: T2, human CD40 on cells (B cells, MDDCs, stably transfected CHO cells) (human, UniProt P25942 21-277)
# T2 construct: also called human CD40-CHO cells; cell surface CD40
# Assay: flow cytometry, stably transfected CHO cells, 1 h on ice, goat anti-human IgG-PE, % of events in gate P1 [panel CD40 CHO]
# T2 sequence (P25942 21-277): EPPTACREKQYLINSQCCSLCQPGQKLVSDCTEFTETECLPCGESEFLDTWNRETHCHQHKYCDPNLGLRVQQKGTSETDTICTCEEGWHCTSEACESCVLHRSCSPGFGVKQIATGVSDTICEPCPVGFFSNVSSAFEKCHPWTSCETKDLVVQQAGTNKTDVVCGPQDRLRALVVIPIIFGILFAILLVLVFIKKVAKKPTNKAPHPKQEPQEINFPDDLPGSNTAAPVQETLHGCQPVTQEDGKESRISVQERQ
row,Binder,EC50 (read off the curve) [nM]
1,B2,~0.0002
2,B1,~0.0003
3,B3,~0.003

# Biological target: CD40 E28A FAS (mutated CD40 ectodomain fused to FAS) on CHO cells (human)
# Assay: flow cytometry, stably transfected CHO cells, 1 h on ice, goat anti-human IgG-PE, % of events in gate P1 [panel CD40 E28A FAS CHO]
# Chain of CD40 E28A FAS (mutated CD40 ectodomain fused to FAS) on CHO cells (human) (chain, as listed by the source E28A E28A): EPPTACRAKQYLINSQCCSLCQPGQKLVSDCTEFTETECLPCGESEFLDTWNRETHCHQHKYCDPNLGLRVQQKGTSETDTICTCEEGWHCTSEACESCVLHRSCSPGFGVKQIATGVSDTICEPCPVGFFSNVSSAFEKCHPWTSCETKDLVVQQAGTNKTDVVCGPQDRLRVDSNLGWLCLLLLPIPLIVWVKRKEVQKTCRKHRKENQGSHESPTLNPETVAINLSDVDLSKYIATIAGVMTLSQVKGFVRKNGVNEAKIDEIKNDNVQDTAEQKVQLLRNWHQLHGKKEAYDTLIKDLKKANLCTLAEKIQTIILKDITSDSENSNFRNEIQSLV
row,Binder,EC50 (read off the curve) [nM]
1,B2,~0.0002
2,B1,~0.0002
3,B3,~0.01

# Biological target: T3, human CD40 ectodomain fused to FAS transmembrane and intracellular domains, on CHO cells (human)
# Assay: cell-based or functional assay
# T3 sequence (chain, as listed by the source limits assumed): as the sequence (chain, as listed by the source E28A E28A) above, with A8E counted along it
row,Binder,EC50 of killing of CD40-FAS CHO cells (loss of MTT reduction) [nM]
1,B2,~2.5
2,B1,~1

# Biological target: T3, human CD40 ectodomain fused to FAS …
# Assay: flow cytometry, stably transfected CHO cells, 1 h on ice, goat anti-human IgG-PE, % of events in gate P1 [panel WT CD40-FAS CHO]
row,Binder,EC50 (read off the curve) [nM]
1,B2,~0.0003
2,B1,~0.0005
3,B3,~0.004

# Biological target: T2, human CD40 on cells (B cells, MDDCs, …)
# Assay: cell-based or functional assay
Binder,EC50 (nM) cytokines: 50% of maximum cytokine secretion by MDDCs [nM],"EC50/EC50 CP, MDDC cytokine secretion [ratio]",EC50 w/sCD40L (nM): MDDC cytokine secretion with constant suboptimal soluble human CD40L [nM],Δ w/sCD40L (fold): MDDC cytokine secretion EC50 [fold]
B2,> 10,> 1000,≥ 0.1,> 1000
B4,> 10,> 1000,≥ 10,> 1000
B1,> 10,> 1000,> 10,~0
B5,> 10,≥ 100,–,~0
B3,~0.1,1,≥ 0.01,~100

# Biological target: T1, cohesin-human CD40 ectodomain protein …
# Assay: SPR (SensiQ Pioneer), hIgG4 mAb captured on Protein A/G, cohesin-human CD40 ectodomain in solution
Binder,Kd [nM],koff [s⁻¹],kon [M⁻¹ s⁻¹]
B2,217,0.064,300000
B4,97,0.008,83000
B1,33,0.0046,150000
B5,100,0.027,250000
B3,71,0.0022,46000

# Biological target: CD40 R27A FAS (mutated CD40 ectodomain fused to FAS) on CHO cells (human)
# Assay: flow cytometry, stably transfected CHO cells, 1 h on ice, goat anti-human IgG-PE, % of events in gate P1 [panel CD40 R27A FAS CHO]
# Chain of CD40 R27A FAS (mutated CD40 ectodomain fused to FAS) on CHO cells (human) (chain, as listed by the source R27A R27A): as the sequence (chain, as listed by the source E28A E28A) above, with R7A, A8E counted along it
Binder,EC50 (read off the curve) [nM],binding result
B2,~0.0003,–
B1,~0.0003,–
B3,–,no binding

# Biological target: T4, human CD40 ectodomain mouse Fc fusion protein (human, UniProt P25942 21-193)
# T4 construct: a human Fc version was used with the mouse mAbs; also called soluble CD40
# Assay: competition, flow cytometry: mAb pre-incubated with CD40 ectodomain-Fc, then CD40L-transfected L cells
row,Binder,"fold higher antibody level required to partially block CD40 binding to CD40L, against the stoichiometric amounts of 12B4 and 12E12 [fold]"
1,B3,> 20

# Biological target: T4, human CD40 ectodomain mouse Fc fusion …
# Assay: competition flow cytometry: human IgG4 mAb titrated into 2 ug/ml human CD40 ectodomain-mouse Fc, 1 h on ice, then added to human CD40L-transfected L cells; cell-bound CD40-Fc detected with anti-IgG-PE; blocked ligand: CD40L on L cells [right panel]
row,Binder,IC50 (read off the curve) [µg/mL]
1,B1,~0.5
2,B5,~0.2

# Biological target: T2, human CD40 on cells (B cells, MDDCs, …)
# Assay: cell-based or functional assay
# Remark: another data set of the same source
Binder,EC50 (nM) B cell: dose for 50% of maximum B cell proliferation [nM],"EC50/EC50 CP, B cell proliferation [ratio]",EC50 w/sCD40L (nM): B cell proliferation with constant 6 nM soluble human CD40L [nM],Δ w/sCD40L (fold): fold difference in B cell proliferation EC50 with constant 6 nM soluble human CD40L [fold]
B2,≥ 10,≥ 100,≥ 0.1,≥ 100
B4,> 10,≥ 1000,–,~100
B1,–,~10,–,~0
B5,–,~10,–,~0
B3,–,1,–,~0
